Experiment [1] concerns the target T1, His-tagged recombinant human EGFR ECD (Homo sapiens (Human)., UniProt P00533).
T1 construct: human EGFR, extracellular domain (ECD); see the supplier's catalogue entry; also called EGFR-His; source: bought: Sino Biological Inc (#10001-H08H)
The experiment in a line: ELISA; direct ELISA: His-tagged EGFR, HER2 or HER3 coated at 800 ng/ml in PBS on Maxisorp plates; two-fold or ten-fold dilutions of BiXAb™ or 1MAbs in PBS, 37°C, 1 h; detected with peroxidase-conjugated anti-human Fc. The conditions noted are these: both partners purified.

Experiment [2] has as its target T2, His-tagged recombinant human HER3 ECD (Homo sapiens (Human)., UniProt P21860).
T2 construct: human HER3, extracellular domain (ECD); see the supplier's catalogue entry; also called HER3-His; source: bought: Sino Biological Inc (#10201-H08H)
The experiment is described as above. The settings on record: both partners purified.

B1: matuzumab (antibody, V domains shown)
VH: QVQLVQSGAEVKKPGASVKVSCKASGYTFTSHWMHWVRQAPGQGLEWIGEFNPSNGRTNYNEKFKSKATMTVDTSTNTAYMELSSLRSEDTAVYYCASRDYDYDGRYFDYWGQGTLVTVSS
VL: DIQMTQSPSSLSASVGDRVTITCSASSSVTYMYWYQQKPGKAPKLLIYDTSNLASGVPSRFSGSGSGTDYTFTISSLQPEDIATYYCQQWSSHIFTFGQGTKVEIK
notes: heavy chain of matuzumab; light chain of matuzumab; also called 1Matu; anti-EGFR mAb; source: cloning, production and purification of mAbs at Icosagen; matuzumab also donated by Merck AG; copies: 2 + 2
On to B1, for which, in experiment [1], the binding result is recorded as “binds”.

B2: patritumab (antibody, V domains shown)
VH: QVQLQQWGAGLLKPSETLSLTCAVYGGSFSGYYWSWIRQPPGKGLEWIGEINHSGSTNYNPSLKSRVTISVETSKNQFSLKLSSVTAADTAVYYCARDKWTWYFDLWGRGTLVTVSS
VL: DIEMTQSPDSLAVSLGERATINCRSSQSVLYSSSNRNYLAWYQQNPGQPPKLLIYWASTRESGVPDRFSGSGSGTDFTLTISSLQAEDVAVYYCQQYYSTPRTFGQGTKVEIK
notes: heavy chain of patritumab; light chain of patritumab; also called 3Patri; anti-HER3 mAb; source: cloning, production and purification of mAbs at Icosagen; copies: 2 + 2
Take B2: in experiment [2], the binding result is “binds”.

B3: elgemtumab (antibody, V domains shown)
VH: EVQLLESGGGLVQPGGSLRLSCAASGFTFSSYAMSWVRQAPGKGLEWVSAINSQGKSTYYADSVKGRFTISRDNSKNTLYLQMNSLRAEDTAVYYCARWGDEGFDIWGQGTLVTVSS
VL: DIQMTQSPSSLSASVGDRVTITCRASQGISNWLAWYQQKPGKAPKLLIYGASSLQSGVPSRFSGSGSGTDFTLTISSLQPEDFATYYCQQYSSFPTTFGQGTKVEIK
notes: heavy chain of elgemtumab; light chain of elgemtumab; also called 3Elgem; anti-HER3 mAb; source: cloning, production and purification of mAbs at Icosagen; copies: 2 + 2
Regarding B3, the binding result in experiment [2] is “binds”.

These data come from article PMC10157173 (Frontiers in Immunology, 2023).
